{"source": "patent US20240158479A1", "about": "(RUTGERS THE STATE UNIVERSITY OF NEW JERSEY, published 2024)", "binders": {"B1": {"name": "Casirivimab (antibody, V domains shown)", "VH": "QVQLVESGGGLVKPGGSLRLSCAASGFTFSDYYMSWIRQAPGKGLEWVSYITYSGSTIYYADSVKGRFTISRDNAKSSLYLQMNSLRAEDTAVYYCARDRGTTMVPFDYWGQGTLVTVSS", "VL": "DIQMTQSPSSLSASVGDRVTITCQASQDITNYLNWYQQKPGKAPKLLIYAASNLETGVPSRFSGSGSGTDFTFTISGLQPEDIATYYCQQYDNLPLTFGGGTKVEIK"}, "B2": {"name": "ACOVIMAB (antibody, V domains shown)", "VH": "EVQLVESGPEVKKPGTSVKVSCKASGFTFTTTSSVQWVRQARGQRLEWIGWIVVGSGETEYAQNFQDRVTITSDMSTTTAYMEMSSLRSEDSAFYYCAAPYCSGGTCMDGFDLWGQGTLVSVSS", "VL": "EIVLTQSPGTLSLSPGERATLSCRASQSVRSNYLGWYQQKPGQAPRLLIYAASSRATGIPDRFSGSGSGTDFTLTISRLEPEDFAVYYCQQYDRSPWTFGQGTKVESKR"}, "B3": {"name": "Tixagevimab (antibody, V domains shown)", "VH": "QMQLVQSGPEVKKPGTSVKVSCKASGFTFMSSAVQWVRQARGQRLEWIGWIVIGSGNTNYAQKFQERVTITRDMSTSTAYMELSSLRSEDTAVYYCAAPYCSSISCNDGFDIWGQGTMVTVSS", "VL": "not shown"}, "B4": {"name": "Bebtelovimab (antibody, V domains shown)", "VH": "QITLKESGPTLVKPTQTLTLTCTFSGFSLSISGVGVGWLRQPPGKALEWLALIYWDDDKRYSPSLKSRLTISKDTSKNQVVLKMTNIDPVDTATYYCAHHSISTIFDHWGQGTLVTVSS", "VL": "QSALTQPASVSGSPGQSITISCTATSSDVGDYNYVSWYQQHPGKAPKLMIFEVSDRPSGISNRFSGSKSGNTASLTISGLQAEDEADYYCSSYTTSSAVFGGGTKLTVLG"}, "B5": {"name": "Bamlanivimab (antibody, V domains shown)", "VH": "QVQLVQSGAEVKKPGSSVKVSCKASGGTFSNYAISWVRQAPGQGLEWMGRIIPILGIANYAQKFQGRVTITADKSTSTAYMELSSLRSEDTAVYYCARGYYEARHYYYYYAMDVWGQGTAVTVSS", "VL": "not shown"}, "B6": {"name": "Imdevimab (antibody, V domains shown)", "VH": "QVQLVESGGGVVQPGRSLRLSCAASGFTFSNYAMYWVRQAPGKGLEWVAVISYDGSNKYYADSVKGRFTISRDNSKNTLYLQMNSLRTEDTAVYYCASGSDYGDYLLVYWGQGTLVTVSS", "VL": "QSALTQPASVSGSPGQSITISCTGTSSDVGGYNYVSWYQQHPGKAPKLMIYDVSKRPSGVSNRFSGSKSGNTASLTISGLQSEDEADYYCNSLTSISTWVFGGGTKLTVLG"}, "B7": {"name": "Etesevimab (antibody, V domains shown)", "VH": "EVQLVESGGGLVQPGGSLRLSCAASGFTVSSNYMSWVRQAPGKGLEWVSVIYSGGSTFYADSVKGRFTISRDNSMNTLFLQMNSLRAEDTAVYYCARVLPMYGDYLDYWGQGTLVTVSS", "VL": "not shown"}}, "assay_in_all_cases": "cell-based or functional assay", "key": {"[1]": {"target": "Wuhan_Hu-1 spike (B.1_614D) on pseudovirus (SARS-CoV-2, UniProt P0DTC2 14-1273)"}, "[2]": {"target": "Wuhan_Hu-1_D614G spike (B.1) on pseudovirus (SARS-CoV-2, UniProt P0DTC2 14-1273)"}, "[3]": {"target": "Omicron BA.1 spike on pseudovirus (SARS-CoV-2)"}, "[4]": {"target": "Omicron BA.2 spike on pseudovirus (SARS-CoV-2)"}, "[5]": {"target": "Omicron BA.2.12.1 spike on pseudovirus (SARS-CoV-2)"}, "[6]": {"target": "Omicron BA.2.75 spike on pseudovirus (SARS-CoV-2)"}, "[7]": {"target": "Omicron BA.4/5 spike on pseudovirus (SARS-CoV-2)"}, "[8]": {"target": "Omicron BA.4.6 spike on pseudovirus (SARS-CoV-2)"}, "[9]": {"target": "Omicron BA.1 spike on pseudovirus (SARS-CoV-2)", "remark": "listed apart in the source"}, "[10]": {"target": "Wuhan_Hu-1 spike (B.1_614D) on pseudovirus (SARS-CoV-2, UniProt P0DTC2 14-1273)", "remark": "listed apart in the source"}, "[11]": {"target": "Wuhan_Hu-1_D614G spike (B.1) on pseudovirus (SARS-CoV-2, UniProt P0DTC2 14-1273)", "remark": "listed apart in the source"}, "[12]": {"target": "Alpha spike (B.1.1.7) on pseudovirus (SARS-CoV-2)"}, "[13]": {"target": "Delta spike (B.1.617.2) on pseudovirus (SARS-CoV-2)"}, "[14]": {"target": "Beta spike (B.1.351) on pseudovirus (SARS-CoV-2)"}, "[15]": {"target": "Gamma spike (P.1) on pseudovirus (SARS-CoV-2)"}, "[16]": {"target": "Omicron BA.1 spike on pseudovirus (SARS-CoV-2)", "remark": "listed apart in the source"}, "[17]": {"target": "Omicron BA.2 spike on pseudovirus (SARS-CoV-2)", "remark": "listed apart in the source"}, "[18]": {"target": "Omicron BA.2.12.1 spike on pseudovirus (SARS-CoV-2)", "remark": "listed apart in the source"}, "[19]": {"target": "Omicron BA.2.75 spike on pseudovirus (SARS-CoV-2)", "remark": "listed apart in the source"}, "[20]": {"target": "Omicron BA.4/5 spike on pseudovirus (SARS-CoV-2)", "remark": "listed apart in the source"}, "[21]": {"target": "Omicron BA.4.6 spike on pseudovirus (SARS-CoV-2)", "remark": "listed apart in the source"}, "[22]": {"target": "Omicron BQ.1.1 spike on pseudovirus (SARS-CoV-2)"}}, "note": "Several values for one entry are separate records, joined by “and”; a condition that tells them apart may be missing. Equal values may be shown once. Read-outs that look alike come from different tables or passages of the source."}
{"binder": "B1", "values": [{"measurement": "IC50, pseudovirus neutralization", "setting": "[1]", "value": 6.2, "unit": "ng/mL"}, {"measurement": "IC50, pseudovirus neutralization", "setting": "[2]", "value": 2.3, "unit": "ng/mL"}]}
{"binder": "B2", "values": [{"measurement": "IC50, pseudovirus neutralization", "setting": "[3]", "value": "1 to 3", "unit": "ng/mL"}, {"measurement": "IC50, pseudovirus neutralization", "setting": "[4]", "value": "1 to 3", "unit": "ng/mL"}, {"measurement": "IC50, pseudovirus neutralization", "setting": "[5]", "value": "1 to 3", "unit": "ng/mL"}, {"measurement": "IC50, pseudovirus neutralization", "setting": "[6]", "value": "1 to 3", "unit": "ng/mL"}, {"measurement": "IC50, pseudovirus neutralization", "setting": "[7]", "value": "150 ng/mL and 280 ng/mL"}, {"measurement": "IC50, pseudovirus neutralization", "setting": "[8]", "value": 150, "unit": "ng/mL"}, {"measurement": "IC50 vs BA1", "setting": "[9]", "value": "0.9 ng/ml and 60 pM"}, {"measurement": "IC50, pseudovirus neutralization", "setting": "[10]", "value": 9, "unit": "ng/mL"}, {"measurement": "IC50, pseudovirus neutralization", "setting": "[11]", "value": 5.9, "unit": "ng/mL"}, {"measurement": "IC50, pseudovirus neutralization", "setting": "[12]", "value": 5.2, "unit": "ng/mL"}, {"measurement": "IC50, pseudovirus neutralization", "setting": "[13]", "value": 5.1, "unit": "ng/mL"}, {"measurement": "IC50, pseudovirus neutralization", "setting": "[14]", "value": 2, "unit": "ng/mL"}, {"measurement": "IC50, pseudovirus neutralization", "setting": "[15]", "value": 2.9, "unit": "ng/mL"}, {"measurement": "IC50, pseudovirus neutralization", "setting": "[16]", "value": 1.3, "unit": "ng/mL"}, {"measurement": "IC50, pseudovirus neutralization", "setting": "[17]", "value": 2.9, "unit": "ng/mL"}, {"measurement": "IC50, pseudovirus neutralization", "setting": "[18]", "value": 3.7, "unit": "ng/mL"}, {"measurement": "IC50, pseudovirus neutralization", "setting": "[19]", "value": 3.7, "unit": "ng/mL"}, {"measurement": "IC50, pseudovirus neutralization", "setting": "[20]", "value": 220, "unit": "ng/mL"}, {"measurement": "IC50, pseudovirus neutralization", "setting": "[21]", "value": 220, "unit": "ng/mL"}, {"measurement": "IC50, pseudovirus neutralization", "setting": "[22]", "value": 290, "unit": "ng/mL"}]}
{"binder": "B3", "values": [{"measurement": "IC50, pseudovirus neutralization", "setting": "[1]", "value": 3.2, "unit": "ng/mL"}, {"measurement": "IC50, pseudovirus neutralization", "setting": "[2]", "value": 1.2, "unit": "ng/mL"}]}
{"binder": "B4", "values": [{"measurement": "IC50, pseudovirus neutralization", "setting": "[1]", "value": 2.8, "unit": "ng/mL"}, {"measurement": "IC50, pseudovirus neutralization", "setting": "[2]", "value": 1.9, "unit": "ng/mL"}]}
{"binder": "B5", "values": [{"measurement": "IC50, pseudovirus neutralization", "setting": "[1]", "value": 5.3, "unit": "ng/mL"}, {"measurement": "IC50, pseudovirus neutralization", "setting": "[2]", "value": 2, "unit": "ng/mL"}]}
{"binder": "B6", "values": [{"measurement": "IC50, pseudovirus neutralization", "setting": "[1]", "value": 4.8, "unit": "ng/mL"}, {"measurement": "IC50, pseudovirus neutralization", "setting": "[2]", "value": 2.5, "unit": "ng/mL"}]}
{"binder": "B7", "values": [{"measurement": "IC50, pseudovirus neutralization", "setting": "[1]", "value": 12, "unit": "ng/mL"}, {"measurement": "IC50, pseudovirus neutralization", "setting": "[2]", "value": 6.6, "unit": "ng/mL"}]}
